Read-outs that look alike come from different tables or passages of the source. Positions of bridges follow the written chain, without caps; N, C: chain ends. Non-standard residues stand in square brackets, D forms with d. Chains are numbered I, II in the order given. No end group written: not given here. Nle = CCCC[C@H](N)C(=O)O; Aib = CC(C)(N)C(=O)O

Holding throughout (test): cell-based or functional assay
Test [1] deals with T1, RXFP1 receptor (UniProt Q9HBX9 1-757, limits assumed).
T1 sequence (looked up): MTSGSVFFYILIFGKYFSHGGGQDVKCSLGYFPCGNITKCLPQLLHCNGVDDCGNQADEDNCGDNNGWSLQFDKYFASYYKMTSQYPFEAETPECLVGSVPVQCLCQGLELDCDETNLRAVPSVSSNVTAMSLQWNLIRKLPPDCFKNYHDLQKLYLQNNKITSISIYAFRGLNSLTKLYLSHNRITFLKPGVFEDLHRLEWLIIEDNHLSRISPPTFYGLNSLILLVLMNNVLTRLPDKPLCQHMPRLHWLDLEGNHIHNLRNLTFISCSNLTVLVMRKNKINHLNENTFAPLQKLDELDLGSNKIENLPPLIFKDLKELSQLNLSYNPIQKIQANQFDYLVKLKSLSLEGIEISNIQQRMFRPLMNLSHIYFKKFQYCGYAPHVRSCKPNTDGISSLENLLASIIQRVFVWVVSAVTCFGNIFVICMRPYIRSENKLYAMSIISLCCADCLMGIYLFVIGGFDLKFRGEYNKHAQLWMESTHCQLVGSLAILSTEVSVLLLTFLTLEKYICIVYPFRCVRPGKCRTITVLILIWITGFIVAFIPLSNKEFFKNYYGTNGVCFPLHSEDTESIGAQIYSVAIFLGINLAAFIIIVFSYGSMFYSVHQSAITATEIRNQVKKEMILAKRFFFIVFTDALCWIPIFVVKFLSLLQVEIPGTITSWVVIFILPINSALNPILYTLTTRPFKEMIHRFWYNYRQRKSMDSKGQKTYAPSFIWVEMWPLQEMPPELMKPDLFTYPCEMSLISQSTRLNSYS

Test [2] addresses T1, RXFP1 receptor. This is another data set of the same source.
The target in test [3] is T1, RXFP1 receptor. The source holds these as a separate data set.

B1: SEQ ID NO: 48 (peptide)
peptide: Ac-ELEGREKVRAAI[Aib][Aib]EG[Nle]STWS[Aib]RKK-NH2
SMILES: CCCC[C@H](NC(=O)CNC(=O)[C@H](CCC(=O)O)NC(=O)C(C)(C)NC(=O)C(C)(C)NC(=O)[C@@H](NC(=O)[C@H](C)NC(=O)[C@H](C)NC(=O)[C@H](CCCNC(=N)N)NC(=O)[C@@H](NC(=O)[C@H](CCCCN)NC(=O)[C@H](CCC(=O)O)NC(=O)[C@H](CCCNC(=N)N)NC(=O)CNC(=O)[C@H](CCC(=O)O)NC(=O)[C@H](CC(C)C)NC(=O)[C@H](CCC(=O)O)NC(C)=O)C(C)C)[C@@H](C)CC)C(=O)N[C@@H](CO)C(=O)N[C@H](C(=O)N[C@@H](Cc1c[nH]c2ccccc12)C(=O)N[C@@H](CO)C(=O)NC(C)(C)C(=O)N[C@@H](CCCNC(=N)N)C(=O)N[C@@H](CCCCN)C(=O)N[C@@H](CCCCN)C(N)=O)[C@@H](C)O
Consider B1, for which, in the test with RXFP1 receptor [1], the “cAMP assay in OVCAR 5 cells EC50” value was determined as 19.5 nM and the “cAMP assay in OVCAR 5 cells Emax” value came to 91%. As to H-VIKLSGRELVRAQIAISGMSTWSKRSL-NH2 [B7-33 C11.23S], in the test with RXFP1 receptor [2], the “cAMP assay in OVCAR 5 cells EC50” value is 1640 nM and the “cAMP assay in OVCAR 5 cells Emax” value amounted to 90%.

B2: SEQ ID NO: 44 (peptide)
peptide: Ac-LEGREKVRAQI[Aib][Aib]EG[Nle]STWS[Aib]RK-NH2
SMILES: CCCC[C@H](NC(=O)CNC(=O)[C@H](CCC(=O)O)NC(=O)C(C)(C)NC(=O)C(C)(C)NC(=O)[C@@H](NC(=O)[C@H](CCC(N)=O)NC(=O)[C@H](C)NC(=O)[C@H](CCCNC(=N)N)NC(=O)[C@@H](NC(=O)[C@H](CCCCN)NC(=O)[C@H](CCC(=O)O)NC(=O)[C@H](CCCNC(=N)N)NC(=O)CNC(=O)[C@H](CCC(=O)O)NC(=O)[C@H](CC(C)C)NC(C)=O)C(C)C)[C@@H](C)CC)C(=O)N[C@@H](CO)C(=O)N[C@H](C(=O)N[C@@H](Cc1c[nH]c2ccccc12)C(=O)N[C@@H](CO)C(=O)NC(C)(C)C(=O)N[C@@H](CCCNC(=N)N)C(=O)N[C@@H](CCCCN)C(N)=O)[C@@H](C)O
Turning to B2, in the test with RXFP1 receptor [1], the “cAMP assay in OVCAR 5 cells EC50” value amounted to 82 nM and the “cAMP assay in OVCAR 5 cells Emax” value turned out to be 101%. Turning to Ac-VIKLSGRELVRAQIAISGMSTWSKKKK-NH2 [KKKK(AcB7-29 C11.23S)], in the test with RXFP1 receptor [2], the “cAMP assay in OVCAR 5 cells EC50” value is 206 nM and the “cAMP assay in OVCAR 5 cells Emax” value came out at 84%.

B3: Human Relaxin-2 (H2 Relaxin) (ligand)
chain 1: H-QLYSALANKCCHVGCTKRSLARFC-OH
chain 2: H-DSWMEEVIKLCGRELVRAQIAICGMSTWS
modifications: disulfide I:10-I:15, I:11-II:11, I:24-II:23
With B3, the “cAMP assay in OVCAR 5 cells EC50” value with RXFP1 receptor [3] was in the range of 0.1 to 0.3 nM.

B4: SEQ ID NO: 45 (peptide)
peptide: Ac-LEGREKVRAQI[Aib][Aib]EGMSTWS[Aib]RK-NH2
SMILES: CC[C@H](C)[C@H](NC(=O)[C@H](CCC(N)=O)NC(=O)[C@H](C)NC(=O)[C@H](CCCNC(=N)N)NC(=O)[C@@H](NC(=O)[C@H](CCCCN)NC(=O)[C@H](CCC(=O)O)NC(=O)[C@H](CCCNC(=N)N)NC(=O)CNC(=O)[C@H](CCC(=O)O)NC(=O)[C@H](CC(C)C)NC(C)=O)C(C)C)C(=O)NC(C)(C)C(=O)NC(C)(C)C(=O)N[C@@H](CCC(=O)O)C(=O)NCC(=O)N[C@@H](CCSC)C(=O)N[C@@H](CO)C(=O)N[C@H](C(=O)N[C@@H](Cc1c[nH]c2ccccc12)C(=O)N[C@@H](CO)C(=O)NC(C)(C)C(=O)N[C@@H](CCCNC(=N)N)C(=O)N[C@@H](CCCCN)C(N)=O)[C@@H](C)O
As to B4, in the test with RXFP1 receptor [1], the “cAMP assay in OVCAR 5 cells EC50” value amounted to 126 nM and the “cAMP assay in OVCAR 5 cells Emax” value worked out at 98%. As to Ac-VIKLSGRELVRAQIAISGMSTWSKRSL-NH2 [AcB7-33 C11.23S], in the test with RXFP1 receptor [2], the “cAMP assay in OVCAR 5 cells EC50” value came out at 929 nM and the “cAMP assay in OVCAR 5 cells Emax” value is 70%.

B5: SEQ ID NO: 47 (peptide)
peptide: Ac-LEGREKVRAK(Ac)I[Aib][Aib]EG[Nle]STWS[Aib]RK-NH2
SMILES: CCCC[C@H](NC(=O)CNC(=O)[C@H](CCC(=O)O)NC(=O)C(C)(C)NC(=O)C(C)(C)NC(=O)[C@@H](NC(=O)[C@H](CCCCNC(C)=O)NC(=O)[C@H](C)NC(=O)[C@H](CCCNC(=N)N)NC(=O)[C@@H](NC(=O)[C@H](CCCCN)NC(=O)[C@H](CCC(=O)O)NC(=O)[C@H](CCCNC(=N)N)NC(=O)CNC(=O)[C@H](CCC(=O)O)NC(=O)[C@H](CC(C)C)NC(C)=O)C(C)C)[C@@H](C)CC)C(=O)N[C@@H](CO)C(=O)N[C@H](C(=O)N[C@@H](Cc1c[nH]c2ccccc12)C(=O)N[C@@H](CO)C(=O)NC(C)(C)C(=O)N[C@@H](CCCNC(=N)N)C(=O)N[C@@H](CCCCN)C(N)=O)[C@@H](C)O
On to B5, for which, in the test with RXFP1 receptor [1], the “cAMP assay in OVCAR 5 cells EC50” value is 117 nM and the “cAMP assay in OVCAR 5 cells Emax” value came to 94%.

B6: SEQ ID NO: 49 (peptide)
peptide: Ac-LEGREKVRRQI[Aib][Aib]EG[Nle]STWS[Aib]RKK-NH2
SMILES: CCCC[C@H](NC(=O)CNC(=O)[C@H](CCC(=O)O)NC(=O)C(C)(C)NC(=O)C(C)(C)NC(=O)[C@@H](NC(=O)[C@H](CCC(N)=O)NC(=O)[C@H](CCCNC(=N)N)NC(=O)[C@H](CCCNC(=N)N)NC(=O)[C@@H](NC(=O)[C@H](CCCCN)NC(=O)[C@H](CCC(=O)O)NC(=O)[C@H](CCCNC(=N)N)NC(=O)CNC(=O)[C@H](CCC(=O)O)NC(=O)[C@H](CC(C)C)NC(C)=O)C(C)C)[C@@H](C)CC)C(=O)N[C@@H](CO)C(=O)N[C@H](C(=O)N[C@@H](Cc1c[nH]c2ccccc12)C(=O)N[C@@H](CO)C(=O)NC(C)(C)C(=O)N[C@@H](CCCNC(=N)N)C(=O)N[C@@H](CCCCN)C(=O)N[C@@H](CCCCN)C(N)=O)[C@@H](C)O
Consider B6, for which, in the test with RXFP1 receptor [1], the “cAMP assay in OVCAR 5 cells EC50” value is 22.2 nM and the “cAMP assay in OVCAR 5 cells Emax” value is 95%.

B7: SEQ ID NO: 46 (peptide)
peptide: Ac-LEGREKVRAQI[Aib][Aib]EGMSKWS[Aib]R-NH2
SMILES: CC[C@H](C)[C@H](NC(=O)[C@H](CCC(N)=O)NC(=O)[C@H](C)NC(=O)[C@H](CCCNC(=N)N)NC(=O)[C@@H](NC(=O)[C@H](CCCCN)NC(=O)[C@H](CCC(=O)O)NC(=O)[C@H](CCCNC(=N)N)NC(=O)CNC(=O)[C@H](CCC(=O)O)NC(=O)[C@H](CC(C)C)NC(C)=O)C(C)C)C(=O)NC(C)(C)C(=O)NC(C)(C)C(=O)N[C@@H](CCC(=O)O)C(=O)NCC(=O)N[C@@H](CCSC)C(=O)N[C@@H](CO)C(=O)N[C@@H](CCCCN)C(=O)N[C@@H](Cc1c[nH]c2ccccc12)C(=O)N[C@@H](CO)C(=O)NC(C)(C)C(=O)N[C@@H](CCCNC(=N)N)C(N)=O
As to B7, in the test with RXFP1 receptor [1], the “cAMP assay in OVCAR 5 cells EC50” value was determined as 26.7 nM and the “cAMP assay in OVCAR 5 cells Emax” value came to 82%.

The values are drawn from patent US20190233495A1 (Sanofi, published 2019).
